Data: article PMC9974998, “Structural mechanism for inhibition of PP2A-B56α and oncogenicity by CIP2A” (Nature Communications, 2023)
No end group written: not given here. *: point of attachment. Biotin = O=C1N[C@H]2[C@H](CS[C@H]2CCCCC(=O)*)N1

B1: B56α (recombinant, WT) (natural protein)
chain: not shown
notes: PP2A regulatory subunit B56α; pGEX-B56α WT; also called B56α WT; source: E. coli BL21, purified (glutathione agarose, GST removed with AcTEV); not shown: GST, N-terminal, cleaved
B2: B56α K181A/K217A/K227A (recombinant) (natural protein)
chain: not shown
notes: PP2A regulatory subunit B56α with K181A, K217A and K227A; also called B56α triple mutant
B3: B56α Y215Q (natural protein)
chain: not shown
notes: PP2A regulatory subunit B56α with Y215Q; source: purified recombinant
B4: CIP2A(1-330) as used for XL-MS (domain or fragment)
chain: not shown
notes: CIP2A, human, residues 1-330; also called CIP2A(1-330) fragment; source: E. coli BL21, purified (glutathione agarose), dialysed into PBS pH 8, 2 mM DTT, 10% glycerol
B5: GST-CIP2A(1-330) A24E (domain or fragment)
chain: not shown
notes: CIP2A, human, residues 1-330, A24E; also called A24E mutant; source: E. coli BL21, purified (glutathione agarose); not shown: GST, N-terminal, kept
B6: CIP2A peptide (aa18-40) (peptide)
peptide: Biotin-KAVKSEANATQLLRHLEVISGQK
notes: CIP2A, human, head domain residues 18-40; also called CIP2A N-terminal head peptide; CIP2A head peptide; source: synthetic peptide (Fmoc solid phase, HPLC purified, 87% purity)

Experiments:
Conditions in all cases: both partners purified
CIP2A(1-560)V5 His = molecular target: T1, CIP2A(1-560)V5 His (human, UniProt Q8TCG1 1-560); experiment: pull-down; competition: GST-BubR1(647-720), B56α and CIP2A(1-560)V5, 10 pmol each, glutathione bead pull-down, B56α on BubR1 by Western blot
T1 construct: CIP2A, human, residues 1-560; also called V5-tagged recombinant CIP2A(1-560); source: recombinant

GST-CIP2A(1-560) K8A = molecular target: T2, GST-CIP2A(1-560) K8A (human, UniProt Q8TCG1 1-560, K8A); experiment: pull-down; GST pull-down on glutathione agarose; 10 pmol of each protein in 150 µL 50 mM Tris HCl pH 7.5, 150 mM NaCl, 2 mM DTT, 0.2% Igepal, 10% glycerol, 1 h 37 °C; Western blot
T2 construct: CIP2A, human, residues 1-560, K8A; also called CIP2A(1-560) K8A mutant; source: E. coli BL21, purified (glutathione agarose); not shown: GST, N-terminal, kept

[1] = molecular target: T3, CIP2A(1-560) as used for XL-MS (human, UniProt Q8TCG1 1-560); experiment: cross-linking; XL-MS: CIP2A and B56α mixed 1:2, RT 60 min, about 0.5 mg/mL; DSS 100 or 500 µM (PBS pH 8.0, 2 mM DTT, 10% glycerol, 30 min 37 °C) or PDH + DMTMM (pH 7, 45 min 37 °C); LC-MS/MS, xQuest
T3 construct: CIP2A, human, residues 1-560; source: E. coli BL21, purified (glutathione agarose), dialysed into PBS pH 8, 2 mM DTT, 10% glycerol

GST-CIP2A(1-560) [2] = molecular target: T4, GST-CIP2A(1-560) (human, UniProt Q8TCG1 1-560); experiment: pull-down; GST-CIP2A incubated with the pre-assembled PP2A-B56α holoenzyme (A-B56α-PP2Ac), glutathione beads; Coomassie gel and Western blot; CIP2A also titrated against equal molar amounts of PP2A proteins
T4 construct: CIP2A, human, residues 1-560; pGEX vector, thrombin-cleavable N-terminal GST; also called GST-tagged CIP2A(1-560) WT; GST-fused CIP2A(1-560); source: E. coli BL21, purified (glutathione agarose); not shown: GST, N-terminal, kept

GST-CIP2A(1-560) [3] = molecular target: T4, GST-CIP2A(1-560); experiment: pull-down; GST pull-down on glutathione agarose; 10 pmol of each protein in 150 µL 50 mM Tris HCl pH 7.5, 150 mM NaCl, 2 mM DTT, 0.2% Igepal, 10% glycerol, 1 h 37 °C; Western blot
B56α (recombinant, WT) [4] = molecular target: B1; experiment: cross-linking; XL-MS: CIP2A and B56α mixed 1:2, RT 60 min, about 0.5 mg/mL; DSS 100 or 500 µM (PBS pH 8.0, 2 mM DTT, 10% glycerol, 30 min 37 °C) or PDH + DMTMM (pH 7, 45 min 37 °C); LC-MS/MS, xQuest
B56α (recombinant, WT) [5] = molecular target: B1; experiment: pull-down; GST pull-down on glutathione agarose; 10 pmol of each protein in 150 µL 50 mM Tris HCl pH 7.5, 150 mM NaCl, 2 mM DTT, 0.2% Igepal, 10% glycerol, 1 h 37 °C; Western blot
B56α (recombinant, WT) [6] = molecular target: B1; experiment: pull-down; competition: B56α pre-incubated with CIP2A peptide (aa.18-40) 30 min 37 °C, then GST-BubR1(647-720) 1 h 37 °C, 10 pmol each, glutathione bead pull-down, Western blot

## B1
CIP2A(1-560)V5 His
  binding result: binds
GST-CIP2A(1-560) K8A
  binding result: binds
[1]
  binding result: binds
GST-CIP2A(1-560) [2]
  binding result: binds

## B2
GST-CIP2A(1-560) [3]
  binding result: binds

## B3
GST-CIP2A(1-560) [3]
  binding result: binds

## B4
B56α (recombinant, WT) [4]
  binding result: binds

## B5
B56α (recombinant, WT) [5]
  binding result: binds

## B6
B56α (recombinant, WT) [6]
  binding result: binds
